Assay results taken from publication PMC2846270 (Biochemical and biophysical research communications, 2010).

Target: the molecule itself
Test: electron microscopy

B1: Taz1pΔC (C-terminally truncated version of the Taz1 protein) (domain or fragment, S. pombe, UniProt P79005 1-556, looked up)
chain: MISVQSTETIQKVLENEGDQQFDKEVVQNSDSNIETGQISDSLTKAVEERAETESSSNLSNFTTSESESSKPAYCFNSHSQNMAEGSISIPVISHSMNVENEVSTAEGQDSRTGESENDQNAMIVRSIWDIEKASLLVNDCQNIANMAEQKVMMVSAIFSESSKDIVNPESFSERLGKETVKDLYEFNEQLTTKYGLEFRTIFFSYIRKYDAYWCLFEDLEKPLKSIQFFTGLIDLLDNTNKHLTLRSIVLDALLSADEEDSFYGDALVLFEELVIRYFGTDSNPSIDASEFILSCLPYTSLDALNVVCGQVWKSQKICDFLKSTIGNTSNSPLQLRASFPAFVNAVIHFLLEFKNVRRLERKDLSVKGMLYDSDSQQILNRLRERVSGSTAQSADEASGHESDASEDTFSERTLGLNSIDNTEISEVVSLGLVSSALDKITGLLSADNLSETVSQARDFSHTLSKSLKSRAKSLSQKEAANRSKLIAKRGDNLRREASLSSEQDDLSEDFPPVRESDEQESRSGGRSSAMRVSIERSAARSGTRRSQGNPYEGYR
- binding result: binds
